Data taken from PMC1976466 (Nucleic Acids Research, 2007).

B1: GST-HMGB1 domain B (residues 85-180) (domain or fragment, rat, UniProt P63159 85-180, looked up)
chain: TKKKFKDPNAPKRPPSAFFLFCSEYRPKIKGEHPGLSIGDVAKKLGEMWNNTAADDKQPYEKKAAKLKEKYEKDIAAYRAKGKPDAAKKGVVKAEK
B2: 36-bp duplex oligo_1/oligo_2 (dsDNA)
DNA 1: ATGAAATCTAACAATGCGCTCATCGTCATCCTCGGC
DNA 2: GCCGAGGATGACGATGAGCGCATTGTTAGATTTCAT
B3: GST-HMGB1 domain A (residues 1-88) (domain or fragment, rat, UniProt P63159 1-88, looked up)
chain: MGKGDPKKPRGKMSSYAFFVQTCREEHKKKHPDASVNFSEFSKKCSERWKTMSAKEKGKFEDMAKADKARYEREMKTYIPPKGETKKK
B4: GST-HMGB1-ΔC (HMGB1 di-domain A+B, residues 1-180) (domain or fragment, rat, UniProt P63159 1-180, looked up)
chain: MGKGDPKKPRGKMSSYAFFVQTCREEHKKKHPDASVNFSEFSKKCSERWKTMSAKEKGKFEDMAKADKARYEREMKTYIPPKGETKKKFKDPNAPKRPPSAFFLFCSEYRPKIKGEHPGLSIGDVAKKLGEMWNNTAADDKQPYEKKAAKLKEKYEKDIAAYRAKGKPDAAKKGVVKAEK

How the values were obtained:
human topoisomerase IIα = human topoisomerase IIα (human, UniProt P11388 1-1531); test: pull-down
Chain of human topoisomerase IIα (P11388 whole entry): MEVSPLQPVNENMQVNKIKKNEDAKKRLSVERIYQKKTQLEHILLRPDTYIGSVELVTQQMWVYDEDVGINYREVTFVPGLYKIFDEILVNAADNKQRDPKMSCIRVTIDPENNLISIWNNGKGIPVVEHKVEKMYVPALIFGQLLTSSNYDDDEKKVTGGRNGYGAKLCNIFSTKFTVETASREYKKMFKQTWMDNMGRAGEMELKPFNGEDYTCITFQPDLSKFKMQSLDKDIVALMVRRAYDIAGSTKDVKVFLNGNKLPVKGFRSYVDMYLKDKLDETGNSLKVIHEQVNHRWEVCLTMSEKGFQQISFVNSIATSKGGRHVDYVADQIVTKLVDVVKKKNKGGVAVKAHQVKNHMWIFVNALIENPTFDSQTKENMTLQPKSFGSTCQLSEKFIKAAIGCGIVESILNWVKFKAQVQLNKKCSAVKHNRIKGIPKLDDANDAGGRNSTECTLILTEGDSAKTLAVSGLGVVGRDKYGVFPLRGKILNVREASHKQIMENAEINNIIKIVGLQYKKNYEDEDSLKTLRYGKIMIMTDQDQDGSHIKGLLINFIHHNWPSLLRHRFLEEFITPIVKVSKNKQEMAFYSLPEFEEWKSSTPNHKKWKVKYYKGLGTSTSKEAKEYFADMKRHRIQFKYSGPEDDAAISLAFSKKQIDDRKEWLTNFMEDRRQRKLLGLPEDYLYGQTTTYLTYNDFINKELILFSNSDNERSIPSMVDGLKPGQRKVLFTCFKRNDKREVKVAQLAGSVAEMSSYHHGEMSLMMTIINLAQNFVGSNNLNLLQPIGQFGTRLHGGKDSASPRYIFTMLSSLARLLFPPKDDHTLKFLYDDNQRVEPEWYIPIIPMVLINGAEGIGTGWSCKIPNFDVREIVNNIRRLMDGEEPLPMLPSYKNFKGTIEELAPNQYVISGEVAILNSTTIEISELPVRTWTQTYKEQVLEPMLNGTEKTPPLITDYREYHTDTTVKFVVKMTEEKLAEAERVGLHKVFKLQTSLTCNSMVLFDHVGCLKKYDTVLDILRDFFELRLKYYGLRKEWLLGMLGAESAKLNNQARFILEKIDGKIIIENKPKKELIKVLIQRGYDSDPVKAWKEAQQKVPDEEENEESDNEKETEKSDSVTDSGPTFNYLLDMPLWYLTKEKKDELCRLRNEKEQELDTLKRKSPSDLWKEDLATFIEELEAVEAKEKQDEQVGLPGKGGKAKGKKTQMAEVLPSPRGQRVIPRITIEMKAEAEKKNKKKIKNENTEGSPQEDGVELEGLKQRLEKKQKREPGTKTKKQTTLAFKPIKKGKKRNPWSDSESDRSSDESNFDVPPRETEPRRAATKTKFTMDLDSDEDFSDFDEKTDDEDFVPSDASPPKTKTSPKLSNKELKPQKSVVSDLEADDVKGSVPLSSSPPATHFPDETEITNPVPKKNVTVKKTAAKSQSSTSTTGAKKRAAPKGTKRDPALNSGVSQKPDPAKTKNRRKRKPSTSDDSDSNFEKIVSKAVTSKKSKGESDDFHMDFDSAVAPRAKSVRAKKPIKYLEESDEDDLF

[1] = target: DNA topoisomerase II alpha (Homo sapiens, UniProt P11388 1-1531); test: EMSA
Chain of DNA topoisomerase II alpha (P11388 whole entry): as above

Binder	binding result (human topoisomerase IIα)	binding signal [1]
B1	binds	–
B2	–	~10 fold increase in topo IIα binding vs no HMGB1 (up to)
B3	binds	–
B4	binds	–
